In the supplement of paper PMC12636428:

Test system: Saccharomyces cerevisiae
Experiment: transcriptional activation domain activity (GFP:mCherry ratio, weighted mean of sorted bins, harmonized to initial dataset scale) (arbitrary fluorescence ratio units); higher = stronger transcriptional activation
Conditions: beta-estradiol 1 µM; induction time 4 h
In short: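 The activation activity of each tile is the read-weighted mean of bin median fluorescence, averaged across its barcodes and mapped linearly onto the scale of the initial dataset. Tiles were fused to an estradiol-inducible synthetic transcription factor, barcoded, and integrated at URA3 in yeast diploids carrying a GFP reporter. Induction used 1 uM beta-estradiol in SC for 4 hours at 30 °C, after which cells were sorted into 8 GFP:mCherry bins, and any tile with fewer than 50 reads was dropped.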

Point of comparison: “VLTLTFNDGKKHEDLSKQLLFVIHDIFSCDQNSPGYVLLRLLRSFLVLDVYMS”, “transcriptional activation domain activity” value 65000. Against it:
- VLLVVMFFGVLHKRNATHLWNLLYFQGLFWILAATMTELPSVVCLPYSPPLRC — lower, 57400
- VLLYFCSGYMFAILITVAYILLQFLVPLITDAHVLFFEWTFFEFLFRIWFLLW — higher, 79500
- VLLYTGLLKFFNLGVLTATLVEVCKRPWRIRMANGRVDRMKYFNLVFGIVWEC — lower, 58700
- VLMDERISLKNDLSSQDVALFLSLASSVASGSLLLRPPNVWIVVWTYLHRRHG — higher, 66900
- VLMLIVSNLRLMIENFKKYGVLICLSCHDYRRQDVIYGSILYLLVPCHLFVAY — lower, 41900
- VLPPLLLAILFAVLPFILRGLAWYECIPRYSLISVSVYRRFFLFLLIHGFLIV — higher, 65300
- VLPVRFPKDCDQVFIACAVDCAELWRPGWKANIWVISHRRMIVSTVHIRHLSR — lower, 48200
- VLQILAFAMFIICTLTLQLRLRSNPPVQCVAGVVTHYRRYFIALYCTSGLFLI — lower, 56600
- VLRLFNDVWAVTLTQLSILALVGVYLILPYYNVLQCCLIRQDVVLLYLPAFLV — higher, 66500
- VLRMFFVSQANTFVILSLLGLCLPSRALPAAFGFSPSYAPLLIRLYLAQTLFT — lower, 25800
- VLRWGDTNTLPFVHIMMVFIHKMAQYAAAMSYLEQVFPWKLTMVMLNYHLTSC — higher, 68500
- VLSDKEKHRVASQHLNGESSPQLVPHSHHQPHSDTDEEDWESIGAASLRNNSL — lower, 35500
- VLSKKTIDKVLRLIRKLDWNDPQVVQALHKVFSKVWKIKFSHISLLAMLIYDL — higher, 92000
- VLSRVTGLEHKQMCKIILGLIIDLLLPSGGDTSRILRTVRALLDFLYLAQLPS — higher, 73900
- VLSSSLCFPLPPLSPPFLPSLCFPLPPFFPFPPFPLFPPFLPFPLFPLCFPLP — lower, 48300
- VLVVLCLRFFIFGIFGYILGFWMQHLLPYTPLSLSFMCLLFCLSFHLDISPSP — lower, 45600
- VLVVVVALPVVAVMVIMVVVVVVVVVVAIIGGGGWWMWLGLWLRLLIEMDVGA — lower, 32900
- VLYGRLRVKAQLLECALWNISAWLSLPDVERKSYTMLFTTLGGLYDMTCRIYL — lower, 53000
- VLYPLWPLKMRQGVYYLSWGFLCLLGLFFLMAIFRVILFCITYFVVSPGLWLF — lower, 34400
- VLYSSLITIFTAFYWNVASTSSVQILALLLPYTHPNIAHASTIRPFLIYALFT — higher, 66700
- VMFHGKQMKNFLIDINSFTNQQQQAQDNPSFLPLDIEQSSYDLSEDAMSYPII — higher, 115000
- VMHALWNRWIFFNRSLFLGNQHEGVRAFITEYWRMIRLAAGWDVLRWWLLILC — lower, 51800
- VMLNQQILYFCLRILCMHAYAQFRMEDSDIWRMVEKKKHIYNRLIELVYTLCS — lower, 46300
- VMLSFFICRPILRLLHVFHISSPIYLYLPFVPLHLLIYPSFLIDVGLLSMVLA — higher, 65200
- VMMAIIYLMVIFTFIIGVVAGVVPFLYFLSESHFLMCRKASETAGFLCLMFAA — lower, 33700
- VMPTWLWMPLLLVANFFCRFFLFHLIICSYIYPLLYVQLMWVFWFIWRGVFSF — lower, 55700
- VMSYLLCVALVFPVMIVLMLLGCVWFLIVLFFMLGVLIFIMCIGPLYVILKAP — lower, 10200
- VNDAARILLAGLLEIKYTIREHLKSMFGSPWIIMYWRNWSGPLNITLELLGKC — lower, 45200
- VNDIYDSSRSRACNACRNSKVRCEQPRPDHPCKRCAKARRECVSSTRGHKRRR — lower, < 6570
- VNDNSTGSTDSTGSTGNKNKKNNNNSDDVLPFISESPFDMNQVTNFFSPGSTG — lower, 38600
- VNFLGLMYAPLFVLSNFGAANCQHNALLFKFNMHAFFLCFDLFLLYKTWVVAQ — lower, 49900
- VNGDLFEADGCTIQWLLDNSHGLIFAVAYPRILTLTYVPALLQTIKTLFLSLF — lower, 44000
- VNGGGESDEDVKSKKDSKRKGKAIKGEDEEEEEEKPKANSKRGRKKVEENGAV — lower, 44700
- VNHIVAYITLGIVGFCFLSYITLTLMPLIFHDCPYYTPFTSLLWYSAQIIPFF — lower, 33600
- VNKSGSTYGEELSPKLDSSLVNDTTSLLLPQQPVFVSENVGSEFSSLNEFLSM — higher, 108000
- VNLHRARLRSCLDIIHLHIALGSTKRGLERVFELRRMLVSLLALHPFFRPTST — lower, 46100
- VNSHGYKHISNLDELDDLLSLTYSDNNLLSASNNSDFNNSNNGIINTADTQNS — higher, 106000
- VNYHLAMRYFMRYLFTQDLLPLLLAAKEQCQQAHVMCVQGAGFGLRIRTDDIG — lower, 45000
- VPGEVSEAEANGETKAEDAPAAEGDAAKPKKKKKKAAKKAKSANGEATEGAPA — lower, < 6570
- VPGEVTDAEANGEVKAEDADGAEKTKPKKKKKSKAAKAKAKAEGAVEGATAAV — lower, 52900
- VPGEVTEAEANGEAPKAEDGAEDGEAAKPKKKKKSKAARKAKKAAAASTEDGA — lower, 21600
- VPLCIAVLLLLAPHPSILHVLLNYHYLTLHSTRYFLAHLFVIYTISFLAFSSL — lower, 47400
- VPLCVAVLLLLAPHPSILHVLLNYHYLTLHAPGYFVVHLLIIYALYFLAFSSL — lower, 34000
- VPLEEYIPSDIDGVGRVTDKSSLVYDWPFDESIERNFSTTATAATGESKFDIN — higher, 68100
- VPLHISLPSLVIDVRVIGEPGLYFADLGCCYCLDAELQITHIHGLFLHVVFIL — lower, 56600
- VPLLDSNFISLNSNPLLYIQNQNPNSNSSVKVSRSQTFEPSKELIDLVFPWLS — higher, 122000
- VPLMQFILFPPFDWLVLVASPHNPILTSEFYNHLWSLIKLITLCLPLPLFGTL — lower, 61500
- VPLPELEPKVVLELRAVVVQVKQLDEEPPLDLEQRVELVPTGQLEQRAAPVLR — lower, 35000
- VPLVSNSGIVCYDSKIMHAFLSGLLFLQGLMILWFIMIFKLVVRVLLGENAED — lower, 43900
- VPMAYHHYIALLIFGAYLSNVNALCVLSLLPLLLHSLFWSLGATNFLLLSVYN — lower, 56600
- VPPELYVCAEIVRMVMGYVEGGFVKSSSNHKIRPEVLLIACLIVSIKICYSME — lower, 61300
- VPPRSLCFLPSFSILTYILLIFSHLAVCPRPGPPSSSPVSIVLLLFFLRPYLL — higher, 67500
- VPRHLFEKSTLKSLFYVGRHLGLTAAFYVFATHIDRIAWELCARFGYGHRIRG — lower, 20700
- VPRKLTASIHHPVEGLFYGTYWVSISLILNCAHAYGVPSSGPWLVRALEVCFW — lower, 64800
- VPRLKSPVYCVCLGSIILYSICLVLLVIYRVALIRESDGVCLIGFARGGSLPL — lower, 31200
- VPSDSRRCRLKGVTVFTWWRNVFRQALRHQRWICLQYITSFEREWRSVLAIVR — lower, 44800
- VPSSIPRARRLQTAMVAIWSTSIVTTFALTLFLCSFPPLWPFMLMYVIWLNYI — lower, 49000
- VPTVFMAIIQEFASFLYLYQMMCMWVWYYFQYYQMGLVQTIIILMAAFIRVFL — higher, 65400
- VPVNPLALSPETGGPKKLPVARVLVDDEEDEEAKKLSTKPRLVIVGGGWGAVG — lower, 41900
- VPWSRSGHAIDLRFVRSFVAALVFLLLLLFLLLLLLLLLLLLLLLFLLFFFVF — lower, 37200
